Measurements reported in patent publication US20220088117.

System: T1, Serp-1 (myxomavirus-derived serine protease inhibitor)
T1 sequence: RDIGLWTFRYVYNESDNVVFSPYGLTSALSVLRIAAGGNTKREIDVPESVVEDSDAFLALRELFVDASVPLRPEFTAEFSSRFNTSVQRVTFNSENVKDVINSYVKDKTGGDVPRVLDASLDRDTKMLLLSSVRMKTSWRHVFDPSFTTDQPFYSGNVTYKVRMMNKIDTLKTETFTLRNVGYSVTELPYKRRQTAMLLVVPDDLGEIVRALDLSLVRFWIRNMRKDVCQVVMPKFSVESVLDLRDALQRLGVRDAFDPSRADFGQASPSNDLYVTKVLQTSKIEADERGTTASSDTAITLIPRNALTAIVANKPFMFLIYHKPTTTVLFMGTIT

urokinase-type plasminogen activator (uPA)
uPA activity in an in vitro substrate conversion assay: Serp-1 inhibition of uPA activity in an in vitro substrate conversion assay is not affected by the presence of a broad-spectrum antibiotic cocktail
